This note sets out measurements from paper doi:10.1101/461806 (bioRxiv, 2018).

One may read the Kd as the constant that tells how readily two partners part at equilibrium. A lower Kd goes with a tighter complex. The stoichiometry N is a count of units in the complex or per binding partner.

Series [1] concerns the target Cul3N (human Cul3 N-terminal domain, residues 1-388, I342R L346D) (human, UniProt Q13618 1-388, I342R | L346D). Nature of the series: ITC. (In general: In ITC the heat of successive injections is recorded.)
In series [2] the target is T1, Cul3NΔ22 (human Cul3 N-terminal domain, residues 23-388, I342R L346D) (human, UniProt Q13618 23-388, I342R | L346D). As to the kind of experiment: ITC.
T1 sequence (Q13618 23-388 I342R/L346D): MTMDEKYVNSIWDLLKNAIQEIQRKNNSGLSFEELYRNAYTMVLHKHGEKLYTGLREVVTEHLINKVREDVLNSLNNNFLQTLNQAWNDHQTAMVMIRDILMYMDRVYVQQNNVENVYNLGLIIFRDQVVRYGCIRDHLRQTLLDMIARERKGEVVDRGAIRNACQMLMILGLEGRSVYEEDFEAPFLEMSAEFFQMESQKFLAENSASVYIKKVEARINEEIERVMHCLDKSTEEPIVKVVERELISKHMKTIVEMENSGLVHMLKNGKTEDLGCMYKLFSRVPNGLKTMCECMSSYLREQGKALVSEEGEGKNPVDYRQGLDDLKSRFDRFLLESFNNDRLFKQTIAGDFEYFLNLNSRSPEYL
The series “SEC-MALS” deals with the molecule itself. As to the kind of experiment: SEC-MALS. (SEC sorts molecules by how far they enter the pores of the column.)
Series [3] addresses T1, Cul3NΔ22 (human Cul3 N-terminal domain, …). As to the kind of experiment: SEC-MALS.

Chain of Cul3N (human Cul3 N-terminal domain, residues 1-388, I342R L346D) (Q13618 1-388 I342R/L346D): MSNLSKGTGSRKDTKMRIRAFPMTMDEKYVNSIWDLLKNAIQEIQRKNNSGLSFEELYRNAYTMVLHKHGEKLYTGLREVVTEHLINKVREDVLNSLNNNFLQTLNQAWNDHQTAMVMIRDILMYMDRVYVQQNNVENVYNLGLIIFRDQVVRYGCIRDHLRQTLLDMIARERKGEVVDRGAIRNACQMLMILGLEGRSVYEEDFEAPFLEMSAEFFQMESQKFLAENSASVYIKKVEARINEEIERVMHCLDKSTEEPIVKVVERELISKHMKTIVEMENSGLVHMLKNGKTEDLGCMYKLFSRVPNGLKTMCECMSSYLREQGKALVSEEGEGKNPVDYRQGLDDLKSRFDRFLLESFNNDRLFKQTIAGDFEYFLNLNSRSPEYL

B1: A55BB (A55 BTB-BACK domain, residues 1-250) (domain or fragment)
chain: MNNSSELIAVINGFRNSGRFCDISIVINDERINAHKLILSGASEYFSILFSNNFIDSNEYEVNLSHLDYQSVNDLIDYIYGIPLSLTNDNVKYILSTADFLQIGSAITECENYILKNLCSKNCIDFYIYADKYNNKKIESASFNTILQNILRLINDENFKYLTEESMIKILSDDMLNIKNEDFAPLILIKWLESTQQSCTVELLRCLRISLLSPQVIKSLYSHQLVSSIYECITFLNNIAFLDESFPRYH
Turning to B1, the Kd was less than 1 nM in series [1] and 3 nM in series [2]. In addition, the “stoichiometry N” value in series [1] was 1; in series [2], 1; in the series “SEC-MALS” it was 2; in series [3], 1 A55BB per Cul3NΔ22 (2:2 complex). Also, the dH in series [2] is -10.2 kcal/mol.

B2: KLHL3-BB (human KLHL3 BTB-BACK, residues 24-276) (domain or fragment)
chain: RTITVNPAHMGKAFKVMNELRSKQLLCDVMIVAEDVEIEAHRVVLAACSPYFCAMFTGDMSESKAKKIEIKDVDGQTLSKLIDYIYTAEIEVTEENVQVLLPAASLLQLMDVRQNCCDFLQSQLHPTNCLGIRAFADVHTCTDLLQQANAYAEQHFPEVMLGEEFLSLSLDQVCSLISSDKLTVSSEEKVFEAVISWINYEKETRLEHMAKLMEHVRLPLLPRDYLVQTVEEEALIKNNNTCKDFLIEAMKYH
On to B2, for which the dH in series [2] is -18.9 kcal/mol.
